Source: article PMC12412624, “Engineered Cas12j‐8 is a Versatile Platform for Multiplexed Genome Modulation in Mammalian Cells”
Numbering of substitutions follows the chain as printed.

How the values were obtained:
[1] = system: T1, dCas12j-8 E100R E100R;D369A;E567A;D658A (bacteriophage (metagenome)); details: HEK293T cells; panel 1c (compare within a panel only); scale: mean GFP / mean GFP of wild type, printed, no background subtraction
T1 sequence: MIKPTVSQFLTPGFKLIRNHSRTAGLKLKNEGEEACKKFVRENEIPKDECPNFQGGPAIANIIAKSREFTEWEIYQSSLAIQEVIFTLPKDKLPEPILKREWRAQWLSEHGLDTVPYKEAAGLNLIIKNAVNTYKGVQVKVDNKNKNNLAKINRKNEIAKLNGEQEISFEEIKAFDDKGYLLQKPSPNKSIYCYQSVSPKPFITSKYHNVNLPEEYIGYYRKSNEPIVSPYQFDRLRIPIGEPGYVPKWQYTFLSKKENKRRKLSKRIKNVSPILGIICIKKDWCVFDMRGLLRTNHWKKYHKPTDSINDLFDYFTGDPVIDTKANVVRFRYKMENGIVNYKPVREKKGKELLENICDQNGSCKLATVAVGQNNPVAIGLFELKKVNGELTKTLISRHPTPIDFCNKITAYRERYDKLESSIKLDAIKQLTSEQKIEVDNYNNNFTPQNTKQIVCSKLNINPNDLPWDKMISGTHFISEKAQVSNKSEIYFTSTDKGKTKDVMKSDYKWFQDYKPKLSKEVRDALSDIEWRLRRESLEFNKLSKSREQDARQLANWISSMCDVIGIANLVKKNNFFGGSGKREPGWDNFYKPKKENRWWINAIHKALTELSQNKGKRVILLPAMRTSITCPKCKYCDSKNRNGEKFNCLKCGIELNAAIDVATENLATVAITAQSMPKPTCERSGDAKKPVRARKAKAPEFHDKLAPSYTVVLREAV

[2] = system: T2, dCas12j-8 E258R E258R;D369A;E567A;D658A (bacteriophage (metagenome)); details: HEK293T cells; panel 1c (compare within a panel only); scale: mean GFP / mean GFP of wild type, printed, no background subtraction
T2 sequence: T1 sequence with R100E, E258R

[3] = system: T3, dCas12j-8 E258R+D313R+D495R+D527R+E547R E258R;D313R;D495R;D527R;E547R;D369A;E567A;D658A (bacteriophage (metagenome)); details: HEK293T cells; panel 1e (compare within a panel only); scale: mean GFP / mean GFP of wild type, printed, no background subtraction
T3 sequence: T1 sequence with R100E, E258R, D313R, D495R, D527R, E547R

[4] = system: T4, dCas12j-8 E258R+D495R+E547R E258R;D495R;E547R;D369A;E567A;D658A (bacteriophage (metagenome)); details: HEK293T cells; panel 1e (compare within a panel only); scale: mean GFP / mean GFP of wild type, printed, no background subtraction
T4 sequence: T1 sequence with R100E, E258R, D495R, E547R

## CUUUCAAGACUAAUAGAUUGCUCCUUACGAGGAGACACUCCCUAUCAGUGAUAGAG / TTNACTCCCTATCAGTGATAGAG / CTCTATCACTGATAGGGAGTNAA [TetO]
[1]
  binding signal: 0.834
[2]
  binding signal: 1.68
[3]
  binding signal: 5.89
[4]
  binding signal: 4.13
